Experimental findings from publication PMC11143242 (Nature Communications, 2024) are described below.

Holding throughout (conditions): both partners purified
One assay addresses VARV B7 (Variola virus, India-1967, UniProt Q76QZ2). In words: SPR. A general note: In SPR one partner is held on a chip, and binding of the other changes the refractive index at the surface.
The target in another assay is CPXV CPXV199 (Cowpox virus, Brighton Red, UniProt Q8QMP6). Description: SPR.
The target in a further assay is MPXV B6 (T20-H279) (Monkeypox virus, clade II …). In words: ELISA.
The target in assay [1] is MPXV B6 SCR1-2-3-4 (T20-N241) (Monkeypox virus, clade II …). Description: ELISA.
Assay [2] deals with MPXV B6 SCR1-2-3 (T20-K185) (Monkeypox virus, clade II …). Description: ELISA.
The target of the next assay is MPXV B6 protein (Monkeypox virus, clade II …). Description: SPR; antibodies (0.5 ug/mL) […]; BIAcore 8K, 25 °C, […]; 1:1 Langmuir model.
Assay [3] concerns the target MPXV B6 SCR1-2 (T20-E129) (Monkeypox virus, clade II …). Description: ELISA. In general terms: An ELISA detects its analyte on a solid surface through an enzyme-linked reagent.

B1: hMB621 (antibody, V domains shown)
VH: QVQLVQSGGGVVQPGRSLRLSCVASGFSISTYPLHWVRQAPGKGLEWVAVISHDGRNKYYADSVKGRFSISRDNSKNTVYLQMNSLRVEDTAVYYCARAYPYAFDVWGQGTLVTVSS
VL: EIVLTQSPATLSVSPGETATLSCRASQSVRNDLAWYQQKPGQAPRLLIYGASTRASGIPARFSGSGSGTEFTLTISSLQSEDFAIYYCQQYKDWPPWTFGQGTKVEIK
Take B1: the binding result (with VARV B7; with CPXV CPXV199; in the assay with MPXV B6 (T20-H279); in assay [1]; in assay [2]) was “binds” each time. The molecule also had a Kd in the assay with MPXV B6 protein of 1.9 nM.

B2: hMB668 (antibody, V domains shown)
VH: QVQLVQSGAEVKKPGSSVKVSCKSSGGTFSDYAINWVRQAPGQGLEWMGRILPIVGVPNYAQKFQGRVTITADKSSSTAYKEVSGLRSEDTAVYYCARRSGINGHGLDVWGQGTTVIVSS
VL: DIVMTQSPLSLPVTPGEPASISCRSSQSLLNTNGYNYLEWYLHKPGQSPQLLIYLGSHRASGVPDRFSGSGSGTDFTLKISRAEPEDVGVYYCMQTLQTQGYTFGQGTKLEIK
notes: also called MAb hMB668; source: Expi293F, transient transfection, purified (Protein A, gel filtration)
On to B2, for which the binding result (with VARV B7; with CPXV CPXV199; in the assay with MPXV B6 (T20-H279); in assay [1]; in assay [2]; in assay [3]) was “binds” in each case. The molecule also registered a Kd with MPXV B6 protein of 6.2 nM.

For orientation: Kd means the free concentration of one partner at which half of the binding sites on the other are occupied at equilibrium, for simple one-to-one binding.
